# Laboratory results published in PMC9482650, “Quantitative fragmentomics allow affinity mapping of interactomes” (Nature Communications, 2022).
# T1: PDZD2_2, O15018
# T1 sequence (O15018 329-429, limits assumed, looked up): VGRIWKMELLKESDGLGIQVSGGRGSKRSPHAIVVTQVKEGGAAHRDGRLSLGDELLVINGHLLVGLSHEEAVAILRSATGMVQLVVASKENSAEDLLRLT
# T2: PTPN13_1, Q12923
# T2 sequence (Q12923 1088-1188, limits assumed, looked up): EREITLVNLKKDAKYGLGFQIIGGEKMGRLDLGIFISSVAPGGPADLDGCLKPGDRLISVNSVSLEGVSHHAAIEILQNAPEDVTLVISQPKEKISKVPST
# T3: GRIP1_2, Q9Y3R0
# T3 sequence (Q9Y3R0 145-248, limits assumed, looked up): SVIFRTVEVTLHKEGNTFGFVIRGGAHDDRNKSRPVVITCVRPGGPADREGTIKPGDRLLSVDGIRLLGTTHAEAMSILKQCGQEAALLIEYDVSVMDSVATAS
# T4: PCLO, Q9Y6V0
# T4 sequence (Q9Y6V0 4491-4600, limits assumed, looked up): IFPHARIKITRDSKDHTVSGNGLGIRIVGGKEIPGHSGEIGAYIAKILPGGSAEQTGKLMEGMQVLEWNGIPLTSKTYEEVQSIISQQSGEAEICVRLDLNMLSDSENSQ
# T5: DFNB31_2, Q9P202
# T5 sequence (Q9P202 274-371, limits assumed, looked up): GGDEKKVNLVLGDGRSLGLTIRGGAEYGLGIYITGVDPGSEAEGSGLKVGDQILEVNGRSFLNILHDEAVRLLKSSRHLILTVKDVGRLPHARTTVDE
# T6: LRRC7, Q96NW7
# T6 sequence (Q96NW7 1440-1537, limits assumed, looked up): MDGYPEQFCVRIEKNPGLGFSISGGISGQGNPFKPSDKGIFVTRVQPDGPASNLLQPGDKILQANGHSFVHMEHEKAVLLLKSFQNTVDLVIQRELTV
# T7: SYNJ2BP, P57105
# T7 sequence (P57105 8-110, limits assumed, looked up): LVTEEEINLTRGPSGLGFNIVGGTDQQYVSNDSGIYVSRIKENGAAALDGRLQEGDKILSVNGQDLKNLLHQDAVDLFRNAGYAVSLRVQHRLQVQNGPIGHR
# T8: SNTG1, Q9NSN8
# T8 sequence (Q9NSN8 52-150, limits assumed, looked up): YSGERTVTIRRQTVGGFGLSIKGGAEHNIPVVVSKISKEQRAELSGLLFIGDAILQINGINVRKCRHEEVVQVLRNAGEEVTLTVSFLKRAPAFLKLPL
# T9: TIAM2, Q8IVF5
# T9 sequence (Q8IVF5 885-986, limits assumed, looked up): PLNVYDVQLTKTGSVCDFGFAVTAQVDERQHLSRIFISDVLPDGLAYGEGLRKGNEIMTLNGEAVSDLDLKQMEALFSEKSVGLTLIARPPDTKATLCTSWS
# T10: FRMPD1, Q5SYB0
# T10 sequence (Q5SYB0 52-145, limits assumed, looked up): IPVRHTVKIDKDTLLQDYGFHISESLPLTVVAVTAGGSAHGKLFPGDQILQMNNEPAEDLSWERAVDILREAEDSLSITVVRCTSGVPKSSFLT
# T11: PDZRN3_1, Q9UPQ7
# T11 sequence (Q9UPQ7 244-349, limits assumed, looked up): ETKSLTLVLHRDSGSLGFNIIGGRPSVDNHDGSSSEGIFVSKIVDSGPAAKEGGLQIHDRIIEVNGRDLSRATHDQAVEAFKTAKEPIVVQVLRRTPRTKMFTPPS
# T12: MPP2, Q14168
# T12 sequence (Q14168 180-250, limits assumed, looked up): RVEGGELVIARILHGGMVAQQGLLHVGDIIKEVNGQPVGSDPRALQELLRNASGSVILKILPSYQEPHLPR
# T13: TX1BP3, O14907
# T13 sequence (O14907 10-122, limits assumed, looked up): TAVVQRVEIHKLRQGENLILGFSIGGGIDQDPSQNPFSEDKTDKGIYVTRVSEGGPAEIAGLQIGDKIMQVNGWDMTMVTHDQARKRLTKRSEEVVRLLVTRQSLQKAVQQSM
# T14: DFNB31_1, Q9P202
# T14 sequence (Q9P202 135-233, limits assumed, looked up): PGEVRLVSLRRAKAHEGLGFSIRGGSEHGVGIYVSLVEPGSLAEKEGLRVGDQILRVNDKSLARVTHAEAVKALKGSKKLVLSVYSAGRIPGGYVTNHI
# B1: GAGE12J, A6NER3 (peptide)
# chain: PEEGKKQSQC
# B2: SEMA4C, Q9C0C4 (peptide)
# chain: PDSNPEESSV
# Molecular target: T1, PDZD2_2, O15018
# Experiment: holdup assay
# Design: key: below the threshold = too weak to quantify, mostly under pKd 3.1 to 4
# Conditions: plain residues with an end cap or a label only (N-terminal biotin on a linker: ado-ado)
row,Binder,pKd
1,B1,4.01
2,B2,5.35

# Molecular target: T2, PTPN13_1, Q12923
# Experiment: holdup assay
# Design: key: below the threshold = too weak to quantify, mostly under pKd 3.1 to 4
# Conditions: plain residues with an end cap or a label only (N-terminal biotin on a linker: ado-ado)
row,Binder,pKd
1,B1,below the threshold
2,B2,below the threshold

# Molecular target: T3, GRIP1_2, Q9Y3R0
# Experiment: holdup assay
# Design: key: below the threshold = too weak to quantify, mostly under pKd 3.1 to 4
# Conditions: plain residues with an end cap or a label only (N-terminal biotin on a linker: ado-ado)
row,Binder,pKd
1,B1,below the threshold
2,B2,below the threshold

# Molecular target: T4, PCLO, Q9Y6V0
# Experiment: holdup assay
# Design: key: below the threshold = too weak to quantify, mostly under pKd 3.1 to 4
# Conditions: plain residues with an end cap or a label only (N-terminal biotin on a linker: ado-ado)
row,Binder,pKd
1,B1,below the threshold
2,B2,below the threshold

# Molecular target: CASK, O14936
# Sequence (O14936 487-570): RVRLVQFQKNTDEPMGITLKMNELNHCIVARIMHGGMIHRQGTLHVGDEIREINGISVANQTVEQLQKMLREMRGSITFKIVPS
# Experiment: holdup assay
# Design: key: below the threshold = too weak to quantify, mostly under pKd 3.1 to 4
# Conditions: plain residues with an end cap or a label only (N-terminal biotin on a linker: ado-ado)
row,Binder,pKd
1,B1,below the threshold
2,B2,below the threshold

# Molecular target: T5, DFNB31_2, Q9P202
# Experiment: holdup assay
# Design: key: below the threshold = too weak to quantify, mostly under pKd 3.1 to 4
# Conditions: plain residues with an end cap or a label only (N-terminal biotin on a linker: ado-ado)
row,Binder,pKd
1,B1,below the threshold
2,B2,below the threshold

# Molecular target: DLG5_1, Q8TDM6
# Sequence (Q8TDM6 617-713): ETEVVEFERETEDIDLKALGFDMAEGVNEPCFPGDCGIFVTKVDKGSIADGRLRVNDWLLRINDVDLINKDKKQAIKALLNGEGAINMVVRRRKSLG
# Experiment: holdup assay
# Design: key: below the threshold = too weak to quantify, mostly under pKd 3.1 to 4
# Conditions: plain residues with an end cap or a label only (N-terminal biotin on a linker: ado-ado)
row,Binder,pKd
1,B1,below the threshold
2,B2,below the threshold

# Molecular target: T6, LRRC7, Q96NW7
# Experiment: holdup assay
# Design: key: below the threshold = too weak to quantify, mostly under pKd 3.1 to 4
# Conditions: plain residues with an end cap or a label only (N-terminal biotin on a linker: ado-ado)
row,Binder,pKd
1,B1,below the threshold
2,B2,below the threshold

# Molecular target: T7, SYNJ2BP, P57105
# Experiment: holdup assay
# Design: key: below the threshold = too weak to quantify, mostly under pKd 3.1 to 4
# Conditions: plain residues with an end cap or a label only (N-terminal biotin on a linker: ado-ado)
row,Binder,pKd
1,B1,3.54
2,B2,5.09

# Molecular target: T8, SNTG1, Q9NSN8
# Experiment: holdup assay
# Design: key: below the threshold = too weak to quantify, mostly under pKd 3.1 to 4
# Conditions: plain residues with an end cap or a label only (N-terminal biotin on a linker: ado-ado)
row,Binder,pKd
1,B1,below the threshold
2,B2,4.65

# Molecular target: T9, TIAM2, Q8IVF5
# Experiment: holdup assay
# Design: key: below the threshold = too weak to quantify, mostly under pKd 3.1 to 4
# Conditions: plain residues with an end cap or a label only (N-terminal biotin on a linker: ado-ado)
row,Binder,pKd
1,B1,3.87
2,B2,below the threshold

# Molecular target: FRMPD2_3, Q68DX3
# Sequence (Q68DX3 1073-1166): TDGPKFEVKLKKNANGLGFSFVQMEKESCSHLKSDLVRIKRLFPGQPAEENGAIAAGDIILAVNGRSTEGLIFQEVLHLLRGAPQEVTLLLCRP
# Experiment: holdup assay
# Design: key: below the threshold = too weak to quantify, mostly under pKd 3.1 to 4
# Conditions: plain residues with an end cap or a label only (N-terminal biotin on a linker: ado-ado)
row,Binder,pKd
1,B1,below the threshold
2,B2,3.54

# Molecular target: GRIP2_6, Q9C0E4
# Sequence (Q9C0E4 648-740): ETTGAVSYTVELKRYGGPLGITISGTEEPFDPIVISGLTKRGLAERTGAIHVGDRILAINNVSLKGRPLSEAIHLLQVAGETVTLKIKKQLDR
# Experiment: holdup assay
# Design: key: below the threshold = too weak to quantify, mostly under pKd 3.1 to 4
# Conditions: plain residues with an end cap or a label only (N-terminal biotin on a linker: ado-ado)
row,Binder,pKd
1,B1,below the threshold
2,B2,below the threshold

# Molecular target: T10, FRMPD1, Q5SYB0
# Experiment: holdup assay
# Design: key: below the threshold = too weak to quantify, mostly under pKd 3.1 to 4
# Conditions: plain residues with an end cap or a label only (N-terminal biotin on a linker: ado-ado)
row,Binder,pKd
1,B1,below the threshold
2,B2,below the threshold

# Molecular target: GIPC2, Q8TF65
# Sequence (Q8TF65 112-203): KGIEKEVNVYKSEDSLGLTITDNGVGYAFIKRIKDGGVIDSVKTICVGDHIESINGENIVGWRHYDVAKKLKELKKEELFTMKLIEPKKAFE
# Experiment: holdup assay
# Design: key: below the threshold = too weak to quantify, mostly under pKd 3.1 to 4
# Conditions: plain residues with an end cap or a label only (N-terminal biotin on a linker: ado-ado)
row,Binder,pKd
1,B1,3.62
2,B2,3.87

# Molecular target: T11, PDZRN3_1, Q9UPQ7
# Experiment: holdup assay
# Design: key: below the threshold = too weak to quantify, mostly under pKd 3.1 to 4
# Conditions: plain residues with an end cap or a label only (N-terminal biotin on a linker: ado-ado)
row,Binder,pKd
1,B1,below the threshold
2,B2,4.37

# Molecular target: T12, MPP2, Q14168
# Experiment: holdup assay
# Design: key: below the threshold = too weak to quantify, mostly under pKd 3.1 to 4
# Conditions: plain residues with an end cap or a label only (N-terminal biotin on a linker: ado-ado)
row,Binder,pKd
1,B1,below the threshold
2,B2,below the threshold

# Molecular target: MAGI1_2, Q96QZ7
# Sequence (Q96QZ7 456-580): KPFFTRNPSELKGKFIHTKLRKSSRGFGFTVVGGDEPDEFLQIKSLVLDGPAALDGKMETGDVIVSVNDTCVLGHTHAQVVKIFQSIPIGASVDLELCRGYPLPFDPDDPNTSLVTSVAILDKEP
# Experiment: holdup assay
# Design: key: below the threshold = too weak to quantify, mostly under pKd 3.1 to 4
# Conditions: plain residues with an end cap or a label only (N-terminal biotin on a linker: ado-ado)
row,Binder,pKd
1,B1,below the threshold
2,B2,below the threshold

# Molecular target: Inadl_3, Q8NI35
# Sequence (Q8NI35 359-469): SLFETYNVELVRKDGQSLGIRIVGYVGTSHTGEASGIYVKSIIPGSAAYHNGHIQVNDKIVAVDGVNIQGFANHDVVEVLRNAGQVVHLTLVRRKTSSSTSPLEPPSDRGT
# Experiment: holdup assay
# Design: key: below the threshold = too weak to quantify, mostly under pKd 3.1 to 4
# Conditions: plain residues with an end cap or a label only (N-terminal biotin on a linker: ado-ado)
row,Binder,pKd
1,B1,below the threshold
2,B2,below the threshold

# Molecular target: T13, TX1BP3, O14907
# Experiment: holdup assay
# Design: key: below the threshold = too weak to quantify, mostly under pKd 3.1 to 4
# Conditions: plain residues with an end cap or a label only (N-terminal biotin on a linker: ado-ado)
row,Binder,pKd
1,B1,below the threshold
2,B2,4.25

# Molecular target: T14, DFNB31_1, Q9P202
# Experiment: holdup assay
# Design: key: below the threshold = too weak to quantify, mostly under pKd 3.1 to 4
# Conditions: plain residues with an end cap or a label only (N-terminal biotin on a linker: ado-ado)
row,Binder,pKd
1,B1,below the threshold
2,B2,4

# Molecular target: SNX27, Q96L92
# Experiment: holdup assay
# Design: key: below the threshold = too weak to quantify, mostly under pKd 3.1 to 4
# Conditions: plain residues with an end cap or a label only (N-terminal biotin on a linker: ado-ado)
row,Binder,pKd
1,B1,below the threshold
2,B2,5.45

# Molecular target: FRMPD4, Q14CM0
# Sequence (Q14CM0 67-160): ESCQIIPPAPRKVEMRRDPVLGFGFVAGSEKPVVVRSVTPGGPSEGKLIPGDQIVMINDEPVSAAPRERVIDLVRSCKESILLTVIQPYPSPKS
# Experiment: holdup assay
# Design: key: below the threshold = too weak to quantify, mostly under pKd 3.1 to 4
# Conditions: plain residues with an end cap or a label only (N-terminal biotin on a linker: ado-ado)
row,Binder,pKd
1,B1,3.48
2,B2,below the threshold
